Data from PMC10786891, “Massively parallel profiling of RNA-targeting CRISPR-Cas13d”.

T1: EsCas13d, nuclease-dead (Eubacterium siraeum, UniProt B0MS50, R295A;H300A;R849A;H854A)
T1 sequence: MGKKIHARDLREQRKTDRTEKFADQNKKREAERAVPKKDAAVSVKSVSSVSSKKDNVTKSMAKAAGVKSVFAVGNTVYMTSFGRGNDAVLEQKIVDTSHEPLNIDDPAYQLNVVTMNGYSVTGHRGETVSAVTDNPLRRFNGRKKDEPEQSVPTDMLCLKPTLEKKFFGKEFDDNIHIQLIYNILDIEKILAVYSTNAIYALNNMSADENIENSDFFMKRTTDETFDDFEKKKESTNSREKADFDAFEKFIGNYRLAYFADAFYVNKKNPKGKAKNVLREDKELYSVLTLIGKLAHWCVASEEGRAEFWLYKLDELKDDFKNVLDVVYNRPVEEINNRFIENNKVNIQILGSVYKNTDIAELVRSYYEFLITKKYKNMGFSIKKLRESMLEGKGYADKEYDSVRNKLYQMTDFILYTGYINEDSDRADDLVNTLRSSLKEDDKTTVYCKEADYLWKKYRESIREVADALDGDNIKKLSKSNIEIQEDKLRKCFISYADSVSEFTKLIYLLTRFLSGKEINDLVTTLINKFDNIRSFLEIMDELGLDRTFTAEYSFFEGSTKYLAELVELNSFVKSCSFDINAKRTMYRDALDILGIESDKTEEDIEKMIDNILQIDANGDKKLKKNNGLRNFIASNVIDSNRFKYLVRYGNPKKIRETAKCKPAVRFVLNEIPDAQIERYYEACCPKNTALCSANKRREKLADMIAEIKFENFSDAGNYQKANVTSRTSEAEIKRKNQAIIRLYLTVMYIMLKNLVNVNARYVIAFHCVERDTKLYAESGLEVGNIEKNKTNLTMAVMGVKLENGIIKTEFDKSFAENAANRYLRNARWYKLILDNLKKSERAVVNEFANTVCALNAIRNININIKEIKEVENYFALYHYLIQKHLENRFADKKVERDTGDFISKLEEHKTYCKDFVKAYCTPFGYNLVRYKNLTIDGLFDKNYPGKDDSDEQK

B1: target 2 MT 5'PFS GUC 3'PFS UUU (mixed)
RNA 1: CACCCGUGCAAAAUUGCAGGGGUCUAAAACCUUCUCCAAAUUGUUUCAUCCU
RNA 2: GGGAAUGGAUCCACAUCUACGAAUUCGUCAGGAUGAAACAAUUUGGAGAAGUUUAGAUCGGAAGAGCACACGU
B2: target 2 MT 5'PFS CGG 3'PFS UCG (mixed)
RNA 1: CACCCGUGCAAAAUUGCAGGGGUCUAAAACCUUCUCCAAAUUGUUUCAUCCU
RNA 2: GGGAAUGGAUCCACAUCUACGAAUUCCGGAGGAUGAAACAAUUUGGAGAAGUCGAGAUCGGAAGAGCACACGU
B3: target 2 MT 5'PFS ACC 3'PFS UUU (mixed)
RNA 1: CACCCGUGCAAAAUUGCAGGGGUCUAAAACCUUCUCCAAAUUGUUUCAUCCU
RNA 2: GGGAAUGGAUCCACAUCUACGAAUUCACCAGGAUGAAACAAUUUGGAGAAGUUUAGAUCGGAAGAGCACACGU
B4: target 2 MT 5'PFS CGA 3'PFS CGA (mixed)
RNA 1: CACCCGUGCAAAAUUGCAGGGGUCUAAAACCUUCUCCAAAUUGUUUCAUCCU
RNA 2: GGGAAUGGAUCCACAUCUACGAAUUCCGAAGGAUGAAACAAUUUGGAGAAGCGAAGAUCGGAAGAGCACACGU
B5: target 2 MT 5'PFS GGC 3'PFS UGA (mixed)
RNA 1: CACCCGUGCAAAAUUGCAGGGGUCUAAAACCUUCUCCAAAUUGUUUCAUCCU
RNA 2: GGGAAUGGAUCCACAUCUACGAAUUCGGCAGGAUGAAACAAUUUGGAGAAGUGAAGAUCGGAAGAGCACACGU
B6: target 2 MT 5'PFS CUG 3'PFS CAC (mixed)
RNA 1: CACCCGUGCAAAAUUGCAGGGGUCUAAAACCUUCUCCAAAUUGUUUCAUCCU
RNA 2: GGGAAUGGAUCCACAUCUACGAAUUCCUGAGGAUGAAACAAUUUGGAGAAGCACAGAUCGGAAGAGCACACGU
B7: target 2 MT 5'PFS ACC 3'PFS UUG (mixed)
RNA 1: CACCCGUGCAAAAUUGCAGGGGUCUAAAACCUUCUCCAAAUUGUUUCAUCCU
RNA 2: GGGAAUGGAUCCACAUCUACGAAUUCACCAGGAUGAAACAAUUUGGAGAAGUUGAGAUCGGAAGAGCACACGU
B8: target 2 MT 5'PFS AUA 3'PFS CGC (mixed)
RNA 1: CACCCGUGCAAAAUUGCAGGGGUCUAAAACCUUCUCCAAAUUGUUUCAUCCU
RNA 2: GGGAAUGGAUCCACAUCUACGAAUUCAUAAGGAUGAAACAAUUUGGAGAAGCGCAGAUCGGAAGAGCACACGU
B9: target 2 MT 5'PFS CCC 3'PFS UCC (mixed)
RNA 1: CACCCGUGCAAAAUUGCAGGGGUCUAAAACCUUCUCCAAAUUGUUUCAUCCU
RNA 2: GGGAAUGGAUCCACAUCUACGAAUUCCCCAGGAUGAAACAAUUUGGAGAAGUCCAGAUCGGAAGAGCACACGU
B10: target 2 MT 5'PFS UAA 3'PFS UUC (mixed)
RNA 1: CACCCGUGCAAAAUUGCAGGGGUCUAAAACCUUCUCCAAAUUGUUUCAUCCU
RNA 2: GGGAAUGGAUCCACAUCUACGAAUUCUAAAGGAUGAAACAAUUUGGAGAAGUUCAGAUCGGAAGAGCACACGU
B11: target 2 MT 5'PFS CGA 3'PFS AGA (mixed)
RNA 1: CACCCGUGCAAAAUUGCAGGGGUCUAAAACCUUCUCCAAAUUGUUUCAUCCU
RNA 2: GGGAAUGGAUCCACAUCUACGAAUUCCGAAGGAUGAAACAAUUUGGAGAAGAGAAGAUCGGAAGAGCACACGU
B12: target 2 MT 5'PFS ACU 3'PFS CCA (mixed)
RNA 1: CACCCGUGCAAAAUUGCAGGGGUCUAAAACCUUCUCCAAAUUGUUUCAUCCU
RNA 2: GGGAAUGGAUCCACAUCUACGAAUUCACUAGGAUGAAACAAUUUGGAGAAGCCAAGAUCGGAAGAGCACACGU
B13: target 2 MT 5'PFS ACC 3'PFS UUA (mixed)
RNA 1: CACCCGUGCAAAAUUGCAGGGGUCUAAAACCUUCUCCAAAUUGUUUCAUCCU
RNA 2: GGGAAUGGAUCCACAUCUACGAAUUCACCAGGAUGAAACAAUUUGGAGAAGUUAAGAUCGGAAGAGCACACGU
B14: target 2 MT 5'PFS AUA 3'PFS CGA (mixed)
RNA 1: CACCCGUGCAAAAUUGCAGGGGUCUAAAACCUUCUCCAAAUUGUUUCAUCCU
RNA 2: GGGAAUGGAUCCACAUCUACGAAUUCAUAAGGAUGAAACAAUUUGGAGAAGCGAAGAUCGGAAGAGCACACGU
B15: target 2 MT 5'PFS ACC 3'PFS UUC (mixed)
RNA 1: CACCCGUGCAAAAUUGCAGGGGUCUAAAACCUUCUCCAAAUUGUUUCAUCCU
RNA 2: GGGAAUGGAUCCACAUCUACGAAUUCACCAGGAUGAAACAAUUUGGAGAAGUUCAGAUCGGAAGAGCACACGU
B16: target 2 MT 5'PFS CAU 3'PFS UGU (mixed)
RNA 1: CACCCGUGCAAAAUUGCAGGGGUCUAAAACCUUCUCCAAAUUGUUUCAUCCU
RNA 2: GGGAAUGGAUCCACAUCUACGAAUUCCAUAGGAUGAAACAAUUUGGAGAAGUGUAGAUCGGAAGAGCACACGU
B17: target 2 MT 5'PFS ACU 3'PFS CCG (mixed)
RNA 1: CACCCGUGCAAAAUUGCAGGGGUCUAAAACCUUCUCCAAAUUGUUUCAUCCU
RNA 2: GGGAAUGGAUCCACAUCUACGAAUUCACUAGGAUGAAACAAUUUGGAGAAGCCGAGAUCGGAAGAGCACACGU
B18: target 2 MT 5'PFS CAU 3'PFS UGA (mixed)
RNA 1: CACCCGUGCAAAAUUGCAGGGGUCUAAAACCUUCUCCAAAUUGUUUCAUCCU
RNA 2: GGGAAUGGAUCCACAUCUACGAAUUCCAUAGGAUGAAACAAUUUGGAGAAGUGAAGAUCGGAAGAGCACACGU
B19: target 2 MT 5'PFS CGA 3'PFS CGC (mixed)
RNA 1: CACCCGUGCAAAAUUGCAGGGGUCUAAAACCUUCUCCAAAUUGUUUCAUCCU
RNA 2: GGGAAUGGAUCCACAUCUACGAAUUCCGAAGGAUGAAACAAUUUGGAGAAGCGCAGAUCGGAAGAGCACACGU
B20: target 2 MT 5'PFS CAU 3'PFS UGC (mixed)
RNA 1: CACCCGUGCAAAAUUGCAGGGGUCUAAAACCUUCUCCAAAUUGUUUCAUCCU
RNA 2: GGGAAUGGAUCCACAUCUACGAAUUCCAUAGGAUGAAACAAUUUGGAGAAGUGCAGAUCGGAAGAGCACACGU
B21: target 2 MT 5'PFS CUC 3'PFS UCG (mixed)
RNA 1: CACCCGUGCAAAAUUGCAGGGGUCUAAAACCUUCUCCAAAUUGUUUCAUCCU
RNA 2: GGGAAUGGAUCCACAUCUACGAAUUCCUCAGGAUGAAACAAUUUGGAGAAGUCGAGAUCGGAAGAGCACACGU
B22: target 2 MT 5'PFS CGA 3'PFS AGC (mixed)
RNA 1: CACCCGUGCAAAAUUGCAGGGGUCUAAAACCUUCUCCAAAUUGUUUCAUCCU
RNA 2: GGGAAUGGAUCCACAUCUACGAAUUCCGAAGGAUGAAACAAUUUGGAGAAGAGCAGAUCGGAAGAGCACACGU
B23: target 1 insG 3' of 1,insU 3' of 1 (mixed)
RNA 1: CACCCGUGCAAAAAUGCAGGGGUCUAAAACUGAGCGGAUAACCUCUCUAUGG
RNA 2: GGGAAUGGAUCCACAUCUACGAAUUCGUACCAUAGAGAGGUUAUCCGCUCAGUCCGAGAUCGGAAGAGCACACGU
B24: target 1 insC 3' of 16,insU 3' of 7 (mixed)
RNA 1: CACCCGUGCAAAAAUGCAGGGGUCUAAAACUGAGCGGAUAACCUCUCUAUGG
RNA 2: GGGAAUGGAUCCACAUCUACGAAUUCGUACCAUAGACGAGGUUAUCUCGCUCACCGAGAUCGGAAGAGCACACGU

biological target: T1, EsCas13d, nuclease-dead; assay: crRNA (strand 1, pre-loaded); Mg2+; 40 mM Tris-HCl pH 7.5, 150 mM NaCl, 6 mM MgCl2, 1 mM DTT, 0.1% Tween-20, 0.2 mg/ml BSA; 25 C; 10 min per concentration, then washed; details: tags: His6-TwinStrep-SUMO cleaved; N-terminal SNAP kept (SNAP-Surface 488); label: 3' end held by stalled T7 RNA polymerase

Q: How did the Kd turn out when B1 was run?
A: Its Kd is 58 ± 15 nM.

Q: For B2, which Kd is on record?
A: The Kd was 7 ± 0.6 nM.

Q: For B3, which Kd is on record?
A: Its Kd is 7.8 ± 0.9 nM.

Q: For B4, which Kd is on record?
A: The Kd was 5.3 ± 1 nM.

Q: For B5, which Kd is on record?
A: The Kd was 18 ± 4 nM.

Q: B6 was tested. Which Kd did it give?
A: Its Kd is 3.7 ± 0.4 nM.

Q: Which Kd does the source give for B7 here?
A: Its Kd is 11.2 ± 2.2 nM.

Q: B8 was tested. Which Kd did it give?
A: Its Kd is 7.8 ± 0.8 nM.

Q: B9 was tested. Which Kd did it give?
A: The Kd was 2.1 ± 0.5 nM.

Q: How did the Kd turn out when B10 was run?
A: Its Kd is 14 ± 2.1 nM.

Q: How did the Kd turn out when B11 was run?
A: The Kd was 4.6 ± 0.9 nM.

Q: With B12 as the binder, how does the Kd read?
A: Its Kd is 7.3 ± 1.8 nM.

Q: B13 was tested. Which Kd did it give?
A: The Kd was 9.6 ± 2.8 nM.

Q: How did the Kd turn out when B14 was run?
A: Its Kd is 9.5 ± 2.1 nM.

Q: How did the Kd turn out when B15 was run?
A: The Kd was 8.2 ± 1.4 nM.

Q: Which Kd does the source give for B16 here?
A: Its Kd is 4.4 ± 0.5 nM.

Q: Which Kd does the source give for B17 here?
A: Its Kd is 6.2 ± 0.6 nM.

Q: With B18 as the binder, how does the Kd read?
A: Its Kd is 4.5 ± 1.4 nM.

Q: For B19, which Kd is on record?
A: The Kd was 5.6 ± 1.5 nM.

Q: With B20 as the binder, how does the Kd read?
A: The Kd was 3.1 ± 0.5 nM.

Q: With B21 as the binder, how does the Kd read?
A: The Kd was 4 ± 0.8 nM.

Q: Which Kd does the source give for B22 here?
A: The Kd was 7.8 ± 1.1 nM.

Q: How did the Kd turn out when B23 was run?
A: The Kd was 10.5 ± 1.2 nM.

Q: For B24, which Kd is on record?
A: Its Kd is 75 ± 8 nM.
